For two molecules, Kd results are on record in publication PMC11891404, “Thermodynamic versus kinetic basis for the high conformational stability of nanobodies for therapeutic applications” (Febs Letters, 2024).

This assay has as its target T1, AGT-LM, minor allele of the human alanine glyoxylate aminotransferase (Homo sapiens, AGXT minor allele (AGT-LM), UniProt P21549, strain).
T1 construct: alanine:glyoxylate aminotransferase, human, minor allele (AGT-LM)
The assay can be described thus: SPR; Biacore T200; His-tagged NB-AGT captured on a Ni-loaded NTA chip and covalently immobilised (EDC/NHS); AGT-LM injected at 0.74-60 nM in HBS-EP+ (10 mM HEPES, 150 mM NaCl, 3 mM EDTA, 0.05% Tween 20), single cycle kinetics, 120 s pulses, 70 uL/min; 25 °C; 1:1 interaction model. As to conditions: both partners purified.

B1: NB-AGT-1 (VHH)
VHH: QVQLVESGGGLVQAGDSLRLSCAASGLAFSTYGMGWFRQAPGKEREFVADINWSGSSTYVADSVKGRFTISRDNAKNTVYLQMNRLKPEDTAVYSCAAAPGGGLRAGPSRRYEYWGQGTQVTVSS
notes: also in the AlphaFold 2 model files of Data S1; Selected by phage display from an immunised llama; Covalently immobilised on the NTA chip after capture by its His tag; also called NB-1; nanobody 1 raised against AGT-LM; source: E. coli BL21 (DE3), pET-24(+), purified (IMAC, SuperDex 75 SEC); not shown: His6, C-terminal, kept
The Kd is a measure of binding affinity in units of concentration. As to B1, the Kd worked out at 3.8 nM.

B2: NB-AGT-6 (VHH)
VHH: QVQLVESGGGSVQTGGSLRLACVASGFTSDHYSIGWFRQAPGKEREGVSCIGMHDGSTKYAESVKGRFTISSDNDKNTVYLQMNSLKPEDTAVYYCAAGPLVLLDSDTYQSWGEGTQVTVSS
notes: also in the AlphaFold 2 model files of Data S1; Selected by phage display from an immunised llama; Covalently immobilised on the NTA chip after capture by its His tag; also called NB-6; nanobody 6 raised against AGT-LM; source: E. coli BL21 (DE3), pET-24(+), purified (IMAC, SuperDex 75 SEC); not shown: His6, C-terminal, kept
Regarding B2, the Kd was around 0.005 nM.
